Assay: label from the status in PepcDB records

Sequence | protein production
MLLYNKQKKNQNAKGNRILISVTVLGSAGPIRFVAYEDDLVASVIDTALKGYAREGRLPLLGSDFNDFLLYCPMVGPEALSTWDAIGSLGARNFMLCRKPEEKKVEESNGRSDSTINGARKGGSLKAWINKSFNLKVSSH | failed
MLMDGHTHTELCPHGSGEATEKMIQRAIQLGFQRYCITEHAPLPPAFRDQYEGTPAGYTEASLRENQVADYLALANGLKTKYAGQIEISVGFEVDFLPEHVAWTRDFLNTYGPRTQESILSVHFMRGLRQHFWCVDMSTDDFAAGFGQWLKTPQRVFEQYYQTVLASVQADLGPYAPQRIGHMSLVRKYQDYFGLTEPLDVHNLQLVDQTLALVKQQRRQLDLNLAGLYKPYCNDFYPGEQILQRAQKLDIPLVYGSDAHDIASVGRGYHLIKKLIEGLEHHHHHH | failed
MLMHATMAALAVFICFAGNYLTGQSMMERPLVVGLVTGILMGDMKTGVLMGASLEAIFLGNVNIGGVIAAEPVTATTLATTFAIISNVEQKAAMTLAVPIGMLAAFVVMFLKNVFMNIFAPSLDKAAREGNQKMVVTLHYGTWIIYYLIIASISFIGILAGSGPVNLFVESIPQNLMNGLSAAGGLLPAVGFAMLMKLLWDNKLAVFYILGFVLTAYLQLPAVAVAVIGTVICVVSAQRDVEFRDILKRKPAASSAVEGSAKEIEEEDFFA | failed
MLMQYRDLAKNIIKIYQKHGRDWTQLRGDFLHEKIWLDRFLGLLPMSAKVLDLGCGSGTPIAKYLIEQGCQLTGVDTSEVMLDMAQQNFPEQIWINADIRQFSTEQTFDGILAWDSFFHLDPENQRQMFAQFSTHAASGGVLMFTSGPSYGEAIGDMFGGPLYHASLDAAEYRTLLAQYGFETIKMIAEDPECTGHTVWLARKK | failed
MLNAKTSFALLMAVCLIATGVTGYLLGGINPELIQAWLKAAGIWAPVTYVAVYVVATILILPSTALNLTGGAIFGPWMGTFWTSVGAIIAAIAAFIFARTVGREIVAQRLAGRWQAIDAEVRQGAVFYMFAIRLMPILPYGLVNFAAGLTSISFKDYLIGTALGTVPGILPFVLLGSSGLKAIRTGEVLPLVGALALIGMLVGGSTWYRRRRSFPTRKKP | failed
MLNATAFCLAYAGFAALSLGMDRHYEDVFDRALPRRRRLALRSLEWLGLALSLWASAGAWGWNYGTVEWIGILSLAGLLLIWLLTFWPRAALGAGGACALAAPVLALL | failed
MLNFTVGPVMSSEEVRAIGAEQVPYFRTTEFSSTMLENEKFMLEYAKAPEGSKAVFMTCSSTGSMEAVVMNCFTKKDKVLVIDGGSFGHRFVQLCEIHEIPYVALKLEHGKKLTKEKLYEYDNQNFTGLLVNVDETSTAVLYDTMMIGEFCKKNNMFFVCDCVSAFLADPFNMNECGADVMITGSQKVLACPPGISVIVLAPRGVERVEKSKVRTMYFDLKDALKNQERGQTPFTPAVGILLQINERLKEIKKHGGADAEVARIASQAADFRAKIKDLPFELVSESPANGVTSVHPTTANAYDIFLKLKDEYGIWICPNGGEMKDTIFRVGHIGALTHEDNTTLVNAFKDLQKRNLL | not failed
MLNIEIYEEAMCCSTGVCGPEPDETLIKTNQINEYLKQNQIEVQRYNMNNNPNEFIQNKEVIRLIQEKGDEVLPITFIEGNIAKTGAYITQEEADEIITVNQMRNGGCCGGDGCC | not failed
MLNKTASYSEIEMSVVVPKDSKITNIEAVSKLAAPVKNDTSNITDLIEHIKSEKGISITPQKTDSYQDAYNRIKSGDSQAMVLNNAYVSLIELSTPDFKSQIKTIYTYKIKKKINRKNTNHKEGVFNIYISGIDTFGSISTVSRSDVNIIMTVNTNTHKVLLTTTPRDAYVKIPDGGGNQYDKLTHAGLYGVETSMKTLENLYDINLDYYARINFSSFLKLIDLLGGVTVYNDQAFTSKHGNFDFPVGQVTLNSEQALGFVRERYSLQGGDNDRGRNQEKVIAAIINKLASSQSVTKLNSITSQLQTSVQTNMTIDNINDLINNQLSTGQRFTVESQALTGHGSTGELPSYAMPGAQLYMMSIDQSSLSNAKSKIKNTMEELEHHHHHH | not failed
MLNKVLTHLDENIEKSLERLFSLLRFQSISTDFAYKDECRKAADWLVEDLKSIGFKASRRDTSGHPMVVGHHPGPSDDCLHVLFYGHYDVQPVDPLNLWEDDPFTPSLKEREGEKVICARGASDDKGQLMTFIEACRAFKKETGQLPVRVTVLFEGEEESGSSSLVPFLKANKDELKADCALVCDTSMWDADTPSVSVALRGILGEEIIITAANRDLHSGYFGGAAANPIRILTKVLAGLHDENNRVTLPGFYDGVEETPPHILQSWNALNCTAENFLGPIGLSLPAGEKGRSVLELVWARPTAEINGISGGYEGEGIKTVIASQASAKVSFRLVHKQDPEKIRQAFRDYVCSLIPADCSVVFKEHGASPAIQLPYDSPFIKATKDALSQEWNNPALLTVMGGSIPIVADFQSILDMETLLVGFALADDRIHSPNEKYNLKSFHKGQRSWARILATLAKTGG | not failed
MLNNKRLFTSESVTEGHPDKIADQVSDAILDAILKDDPNARVACETTVTTGMALIAGEISTTTYVDIPKVVRETIKEIGYTRAKYGYDYETMAILTAIDEQSPDIAQGVDKALEYRDKDSEEEIEATGAGDQGLMFGYATNETETYMPLAIYLSHQLAKRLSDVRKDGTLNYLRPDGKVQVTVEYDENDNPVRIDTIVVSTQHAEDVTLEQIQEDIKAHVIYPTVPENLINEQTKFYINPTGRFVIGGPQGDAGLTGRKIIVDTYGGYARHGGGCFSGKDPTKVDRSAAYAARYVAKNIVAAGLADQCEVQLAYAIGVAEPVSIAIDTFGTGKVSEGQLVEAVRKHFDLRPAGIIKMLDLKQPIYKQTAAYGHFGRTDVLFPWEKLDKVEELKDAVK | failed
MLNPFEKLQIPPKANQTIDTMLKRLPKIGGTTVRDREIRRLKEYYERIKKYYDFVEQFPKIDELHPFYLEATRIMTDINKLRICLSVTKKTSVISMKILKKYINQIRKSPENESNRIMRQAFGRVSSVLRKSSECIDRVIDVAKELKKIQGIDPTLPTIVVAGPPNVGKSTLVSKISTAKPEIASYPFTTKEVHVGHVILDDFRIQVIDTPGILDRPEAERNRIERKATNAIRNLNGIIVFMFDSSISSVLSVEGQIELFREVKLLKKIVIPVINKIDEKYEEYYKKIVDFLLSEGNEWHEISAEKGIGIDKLKEELFNLVKSSGTNEVSRD | failed

— a protein production outcome set (Wang et al. 2014)
